Assay results published in patent US5939263.

Target: murine neuropeptide Y Yx receptor (murine)
Test: displacement of ^125 I-PYY (90 pM) from membranes of COS-7 cells transfected with the murine NPY Yx receptor

| Substance | IC50 [µM] |
| --- | --- |
| Leu^31, Pro^34 !NPY (peptide) | 0.009 |
| NPY(2-36) (peptide) | 0.016 |
| NPY(13-36) (peptide) | 0.134 |
| Neuropeptide Y | 0.006 |
| peptide YY | 0.014 |
